Patent US20140303084A1 (Biogen, published 2014)
Square brackets hold non-standard residues; d marks the D form. Ends that are not written are not given here. Orn = NCCC[C@H](N)C(=O)O; Dab = NCC[C@H](N)C(=O)O

B1: RRAPGKLT-Asp-LASY-Dab-WLFWTGIA-COOH (peptide)
peptide: RRAPGKLTDLASY[Dab]WLFWTGIA-OH
modifications: N-terminus assumed
SMILES: CC[C@H](C)[C@H](NC(=O)CNC(=O)[C@@H](NC(=O)[C@H](Cc1c[nH]c2ccccc12)NC(=O)[C@H](Cc1ccccc1)NC(=O)[C@H](CC(C)C)NC(=O)[C@H](Cc1c[nH]c2ccccc12)NC(=O)[C@H](CCN)NC(=O)[C@H](Cc1ccc(O)cc1)NC(=O)[C@H](CO)NC(=O)[C@H](C)NC(=O)[C@H](CC(C)C)NC(=O)[C@H](CC(=O)O)NC(=O)[C@@H](NC(=O)[C@H](CC(C)C)NC(=O)[C@H](CCCCN)NC(=O)CNC(=O)[C@@H]1CCCN1C(=O)[C@H](C)NC(=O)[C@H](CCCNC(=N)N)NC(=O)[C@@H](N)CCCNC(=N)N)[C@@H](C)O)[C@@H](C)O)C(=O)N[C@@H](C)C(=O)O
B2: RRAPGKLT-Asp-LASY-Orn-WLFWTGIA-COOH (peptide)
peptide: RRAPGKLTDLASY[Orn]WLFWTGIA-OH
modifications: N-terminus assumed
SMILES: CC[C@H](C)[C@H](NC(=O)CNC(=O)[C@@H](NC(=O)[C@H](Cc1c[nH]c2ccccc12)NC(=O)[C@H](Cc1ccccc1)NC(=O)[C@H](CC(C)C)NC(=O)[C@H](Cc1c[nH]c2ccccc12)NC(=O)[C@H](CCCN)NC(=O)[C@H](Cc1ccc(O)cc1)NC(=O)[C@H](CO)NC(=O)[C@H](C)NC(=O)[C@H](CC(C)C)NC(=O)[C@H](CC(=O)O)NC(=O)[C@@H](NC(=O)[C@H](CC(C)C)NC(=O)[C@H](CCCCN)NC(=O)CNC(=O)[C@@H]1CCCN1C(=O)[C@H](C)NC(=O)[C@H](CCCNC(=N)N)NC(=O)[C@@H](N)CCCNC(=N)N)[C@@H](C)O)[C@@H](C)O)C(=O)N[C@@H](C)C(=O)O
B3: RRAPGKLT-Orn-LASY-Asp-WLFWTGIA-COOH (peptide)
peptide: RRAPGKLT[Orn]LASYDWLFWTGIA-OH
modifications: N-terminus assumed
SMILES: CC[C@H](C)[C@H](NC(=O)CNC(=O)[C@@H](NC(=O)[C@H](Cc1c[nH]c2ccccc12)NC(=O)[C@H](Cc1ccccc1)NC(=O)[C@H](CC(C)C)NC(=O)[C@H](Cc1c[nH]c2ccccc12)NC(=O)[C@H](CC(=O)O)NC(=O)[C@H](Cc1ccc(O)cc1)NC(=O)[C@H](CO)NC(=O)[C@H](C)NC(=O)[C@H](CC(C)C)NC(=O)[C@H](CCCN)NC(=O)[C@@H](NC(=O)[C@H](CC(C)C)NC(=O)[C@H](CCCCN)NC(=O)CNC(=O)[C@@H]1CCCN1C(=O)[C@H](C)NC(=O)[C@H](CCCNC(=N)N)NC(=O)[C@@H](N)CCCNC(=N)N)[C@@H](C)O)[C@@H](C)O)C(=O)N[C@@H](C)C(=O)O

The binders below were run against human Factor IXa (human, UniProt P00740 47-191; P00740 227-461) (assay: cell-based or functional assay).

Row | EC50 [µM], FXa generation assay | Binder
1 | > 20 µM | RRAPGKLTCLASYAWCFWTGIA-NH2 (cysteine pairing not given here) [RRAPGKLTCLASYAWCFWTGIA-CONH2]
2 | > 20 µM | RRAPGCLTALASYAWLCWTGIA-OH (cysteine pairing not given here) [RRAPGCLTALASYAWLCWTGIA-COOH]
3 | > 10 µM | RRAPGKLTKLASYDWLFWTGIA-OH [RRAPGKLT-Lys-LASY-Asp-WLFWTGIA-COOH]
4 | > 10 µM | RRAPGKLCALASYACLFWTGIA-OH (cysteine pairing not given here) [RRAPGKLCALASYACLFWTGIA-COOH]
5 | > 1 µM | RRAPGKLCALASYCWLFWTGIA-OH (cysteine pairing not given here) [RRAPGKLCALASYCWLFWTGIA-COOH]
6 | > 10 µM | RRAPGKLTCLASYAWLCWTGIA-OH (cysteine pairing not given here) [RRAPGKLTCLASYAWLCWTGIA-COOH]
7 | > 10 µM | RRAPGKLCALASYACLFWTGIA-NH2 (cysteine pairing not given here) [RRAPGKLCALASYACLFWTGIA-CONH2]
8 | > 1 µM | RRAPGKLTCLASYACLFWTGIA-NH2 (cysteine pairing not given here) [RRAPGKLTCLASYACLFWTGIA-CONH2]
9 | > 1 µM | RRAPGKCTALASYAWCFWTGIA-OH (cysteine pairing not given here) [RRAPGKCTALASYAWCFWTGIA-COOH]
10 | > 1 µM | RRAPGCLTALASYAWLCWTGIA-NH2 (cysteine pairing not given here) [RRAPGCLTALASYAWLCWTGIA-CONH2]
11 | > 1 µM | RRAPGKLCALASYCWLFWTGIA-NH2 (cysteine pairing not given here) [RRAPGKLCALASYCWLFWTGIA-CONH2]
12 | > 1 µM | RRAPGKCTALASYAWCFWTGIA-NH2 (cysteine pairing not given here) [RRAPGKCTALASYAWCFWTGIA-CONH2]
13 | > 10 µM | B1
14 | < 0.5 µM | B2
15 | > 1 µM | RRAPGCLTALASYCWLFWTGIA-NH2 (cysteine pairing not given here) [RRAPGCLTALASYCWLFWTGIA-CONH2]
16 | > 10 µM | RRAPGKLTCLASYAWLCWTGIA-NH2 (cysteine pairing not given here) [RRAPGKLTCLASYAWLCWTGIA-CONH2]
17 | > 1 µM | B3
18 | > 10 µM | SKQGRPISPDRRAAGKLTCLASYCWLFGSGISLSRAPESAAP
19 | < 0.5 µM | RRAPGKLTDLASYKWLFWTGIA-OH [RRAPGKLT-Asp-LASY-Lys-WLFWTGIA-COOH]
20 | > 1 µM | RRAPGKLTCLASYAWCFWTGIA-OH (cysteine pairing not given here) [RRAPGKLTCLASYAWCFWTGIA-COOH]
21 | > 1 µM | RRAPGCLTALASYCWLFWTGIA-OH (cysteine pairing not given here) [RRAPGCLTALASYCWLFWTGIA-COOH]
22 | > 1 µM | RRAPGKCTALASYCWLFWTGIA-OH (cysteine pairing not given here) [RRAPGKCTALASYCWLFWTGIA-COOH]
23 | > 1 µM | RRAPGKCTALASYCWLFWTGIA-NH2 (cysteine pairing not given here) [RRAPGKCTALASYCWLFWTGIA-CONH2]
